The test deals with T1, biotinylated CD3 epsilon:delta heterodimer protein (Amsbio AMS.CDD-H52WO) (Homo sapiens (Human), UniProt P07766 23-126; P04234 22-105).
T1 construct: also called CD3 heterodimer
The test is described as follows: BLI (Octet), CD3 on SA sensor, Fab analyte.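 Note: biolayer interferometry with biotinylated CD3 epsilon:delta captured on streptavidin sensors, Fab analyte at several concentrations up to 300 nM, 100 s association then 300 s dissociation.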

Usually Kd stands for the concentration at which binding is half-saturated. A low value points to tighter binding. In general, koff refers to the first-order rate constant of dissociation. Lower therefore signals a long-lived complex. Broadly, the kon is a measure of how fast the partners come together. Lower therefore signals slow association.

B1: huSP34.6.5 Fab-HF (Fab, V domains shown)
VH: EVQLVESGGGLVQPGGSLRLSCAASGFTFSTYAMNWVRQAPGKGLEWVGRIRSKYNNYATYYADSVKGRFTISRDNSKNTLYLQMNSLRAEDTAMYYCVRHGNFGNSYVSWFAVWGQGTLVTVSS
VL: QAVVTQEPSLTVSPGGTVTLTCGSSTGAVTTGHYANWVQQKPGQAPRGLIGGTSNRAPWTPARFSGSLLGGKAALTLSGAQPEDEAEYYCALWYSARWVFGGGTKLTVL
notes: also called HC6+LC5
On to B1, for which the Kd is 353 nM, the koff was determined as 0.0963 s⁻¹ and the kon amounted to 273000 M⁻¹ s⁻¹.

B2: huSP34.9.5 Fab-HF (Fab, V domains shown)
VH: EVQLVESGGGLVQPGGSLRLSCAASGFTFSDYAMNWVRQAPGKGLEWVGRTRSKYNSYATYYAASVKGRFTISRDDSKNSLYLQMNSLKTEDTAVYYCVRHGNFGNSYVSWFAVWGQGTLVTVSS
VL: QAVVTQEPSLTVSPGGTVTLTCGSSTGAVTTGHYANWVQQKPGQAPRGLIGGTSNRAPWTPARFSGSLLGGKAALTLSGAQPEDEAEYYCALWYSARWVFGGGTKLTVL
notes: also called HC9+LC5
As to B2, the binding result is listed as “no binding (tested: 0-300 nM)”.

B3: huSP34.8.1 Fab-HF (Fab, V domains shown)
VH: EVQLVESGGGLVQPGGSLRLSCAASGFTFSDYAMNWVRQAPGKGLEWVGRTRSKYNNYATYYAASVKGRFTISRDDSKNSLYLQMNSLKTEDTAVYYCVRHGNFGHSYVSWFAVWGQGTLVTVSS
VL: QAVVTQEPSLTVSPGGTVTLTCRSSTGAVTTSNYANWVQQKPGQAPRGLIGGTNKRAPWTPARFSGSLIGDKAALTLSGAQPEDEAEYYCALWYSNLWVFGGGTKLTVL
notes: also called HC8+LC1
B3 had a Kd of 443 nM, an off-rate constant (koff) of 0.0823 s⁻¹ and a kon of 186000 M⁻¹ s⁻¹.

B4: huSP34.7.2 Fab-HF (Fab, V domains shown)
VH: EVQLVESGGGLVQPGGSLRLSCAASGFTFSDYAMNWVRQAPGKGLEWVGRTRSKYNNYATYYAASVKGRFTISRDDSKNSLYLQMNSLKTEDTAVYYCVRHGNFGNSYVSWFAVWGQGTLVTVSS
VL: QAVVTQEPSLTVSPGGTVTLTCGSSTGAVTTSNYANWVQQKPGQAPRGLIGGTSNRAPWTPARFSGSLLGGKAALTLSGAQPEDEAEYYCALWYSNLWVFGGGTKLTVL
notes: also called HC7+LC2
B4 returned a Kd of 498 nM, a koff of 0.155 s⁻¹ and a kon of 318000 M⁻¹ s⁻¹.

B5: huSP34.10.5 Fab-HF (Fab, V domains shown)
VH: EVQLVESGGGLVQPGGSLRLSCAASGFTFSDYAMNWVRQAPGKGLEWVGRTRSKYNSYATYYAASVKGRFTISRDDSKNSLYLQMNSLKTEDTAVYYCVRHGNFGHSYVSWFAVWGQGTLVTVSS
VL: QAVVTQEPSLTVSPGGTVTLTCGSSTGAVTTGHYANWVQQKPGQAPRGLIGGTSNRAPWTPARFSGSLLGGKAALTLSGAQPEDEAEYYCALWYSARWVFGGGTKLTVL
notes: also called HC10+LC5
B5: binding was characterised by a dissociation constant (Kd) of 222 nM and the off-rate (koff) amounted to 0.0827 s⁻¹.

B6: huSP34.7.1 Fab-HF (Fab, V domains shown)
VH: EVQLVESGGGLVQPGGSLRLSCAASGFTFSDYAMNWVRQAPGKGLEWVGRTRSKYNNYATYYAASVKGRFTISRDDSKNSLYLQMNSLKTEDTAVYYCVRHGNFGNSYVSWFAVWGQGTLVTVSS
VL: QAVVTQEPSLTVSPGGTVTLTCRSSTGAVTTSNYANWVQQKPGQAPRGLIGGTNKRAPWTPARFSGSLIGDKAALTLSGAQPEDEAEYYCALWYSNLWVFGGGTKLTVL
notes: also called HC7+LC1
Take B6: the Kd came to 372 nM, the koff came out at 0.0855 s⁻¹ and the kon came out at 235000 M⁻¹ s⁻¹.

B7: huSP34.10.1 Fab-HF (Fab, V domains shown)
VH: EVQLVESGGGLVQPGGSLRLSCAASGFTFSDYAMNWVRQAPGKGLEWVGRTRSKYNSYATYYAASVKGRFTISRDDSKNSLYLQMNSLKTEDTAVYYCVRHGNFGHSYVSWFAVWGQGTLVTVSS
VL: QAVVTQEPSLTVSPGGTVTLTCRSSTGAVTTSNYANWVQQKPGQAPRGLIGGTNKRAPWTPARFSGSLIGDKAALTLSGAQPEDEAEYYCALWYSNLWVFGGGTKLTVL
notes: also called HC10+LC1
As to B7, the binding result is “no binding (tested: 0-300 nM)”.

B8: huSP34.10.4 Fab-HF (Fab, V domains shown)
VH: EVQLVESGGGLVQPGGSLRLSCAASGFTFSDYAMNWVRQAPGKGLEWVGRTRSKYNSYATYYAASVKGRFTISRDDSKNSLYLQMNSLKTEDTAVYYCVRHGNFGHSYVSWFAVWGQGTLVTVSS
VL: QAVVTQEPSLTVSPGGTVTLTCGSSTGAVTTSHYANWVQQKPGQAPRGLIGGTSKRAPWTPARFSGSLLGGKAALTLSGAQPEDEAEYYCALWYSALWVFGGGTKLTVL
notes: also called HC10+LC4
As to B8, the binding result was “no binding (tested: 0-300 nM)”.

B9: huSP34.8.4 Fab-HF (Fab, V domains shown)
VH: EVQLVESGGGLVQPGGSLRLSCAASGFTFSDYAMNWVRQAPGKGLEWVGRTRSKYNNYATYYAASVKGRFTISRDDSKNSLYLQMNSLKTEDTAVYYCVRHGNFGHSYVSWFAVWGQGTLVTVSS
VL: QAVVTQEPSLTVSPGGTVTLTCGSSTGAVTTSHYANWVQQKPGQAPRGLIGGTSKRAPWTPARFSGSLLGGKAALTLSGAQPEDEAEYYCALWYSALWVFGGGTKLTVL
notes: also called HC8+LC4
In turn, B9 registered a Kd of 305 nM, a koff of 0.163 s⁻¹ and a kon of 561000 M⁻¹ s⁻¹.

B10: huSP34.7.5 Fab-HF (Fab, V domains shown)
VH: EVQLVESGGGLVQPGGSLRLSCAASGFTFSDYAMNWVRQAPGKGLEWVGRTRSKYNNYATYYAASVKGRFTISRDDSKNSLYLQMNSLKTEDTAVYYCVRHGNFGNSYVSWFAVWGQGTLVTVSS
VL: QAVVTQEPSLTVSPGGTVTLTCGSSTGAVTTGHYANWVQQKPGQAPRGLIGGTSNRAPWTPARFSGSLLGGKAALTLSGAQPEDEAEYYCALWYSARWVFGGGTKLTVL
notes: also called HC7+LC5
Consider B10, for which the Kd worked out at 1460 nM, the koff is 0.848 s⁻¹ and the kon is 307000 M⁻¹ s⁻¹.

B11: huSP34.10.2 Fab-HF (Fab, V domains shown)
VH: EVQLVESGGGLVQPGGSLRLSCAASGFTFSDYAMNWVRQAPGKGLEWVGRTRSKYNSYATYYAASVKGRFTISRDDSKNSLYLQMNSLKTEDTAVYYCVRHGNFGHSYVSWFAVWGQGTLVTVSS
VL: QAVVTQEPSLTVSPGGTVTLTCGSSTGAVTTSNYANWVQQKPGQAPRGLIGGTSNRAPWTPARFSGSLLGGKAALTLSGAQPEDEAEYYCALWYSNLWVFGGGTKLTVL
notes: also called HC10+LC2
In turn, B11 returned a Kd of 307 nM, a koff of 0.0664 s⁻¹ and a kon of 225000 M⁻¹ s⁻¹.

B12: huSP34.8.6 Fab-HF (Fab, V domains shown)
VH: EVQLVESGGGLVQPGGSLRLSCAASGFTFSDYAMNWVRQAPGKGLEWVGRTRSKYNNYATYYAASVKGRFTISRDDSKNSLYLQMNSLKTEDTAVYYCVRHGNFGHSYVSWFAVWGQGTLVTVSS
VL: QAVVTQPPSLTVSPGGTVTLTCGSSTGAVTTGHYANWVQQKPGQAPRGLIGGTSNRAPGVPARFSGSLSGGKAALTISGAQPEDEAEYYCALWYSARWVFGGGTKLTVL
notes: also called HC8+LC6
B12 gave a dissociation constant Kd of 375 nM, a koff of 0.138 s⁻¹ and a kon of 367000 M⁻¹ s⁻¹.

B13: huSP34.8.5 Fab-HF (Fab, V domains shown)
VH: EVQLVESGGGLVQPGGSLRLSCAASGFTFSDYAMNWVRQAPGKGLEWVGRTRSKYNNYATYYAASVKGRFTISRDDSKNSLYLQMNSLKTEDTAVYYCVRHGNFGHSYVSWFAVWGQGTLVTVSS
VL: QAVVTQEPSLTVSPGGTVTLTCGSSTGAVTTGHYANWVQQKPGQAPRGLIGGTSNRAPWTPARFSGSLLGGKAALTLSGAQPEDEAEYYCALWYSARWVFGGGTKLTVL
notes: also called HC8+LC5
In turn, B13 yielded a Kd of 234 nM, a koff of 0.219 s⁻¹ and a kon of 958000 M⁻¹ s⁻¹.

B14: huSP34.9.1 Fab-HF (Fab, V domains shown)
VH: EVQLVESGGGLVQPGGSLRLSCAASGFTFSDYAMNWVRQAPGKGLEWVGRTRSKYNSYATYYAASVKGRFTISRDDSKNSLYLQMNSLKTEDTAVYYCVRHGNFGNSYVSWFAVWGQGTLVTVSS
VL: QAVVTQEPSLTVSPGGTVTLTCRSSTGAVTTSNYANWVQQKPGQAPRGLIGGTNKRAPWTPARFSGSLIGDKAALTLSGAQPEDEAEYYCALWYSNLWVFGGGTKLTVL
notes: also called HC9+LC1
As to B14, the affinity, expressed as Kd, was 417 nM; the koff was 0.0779 s⁻¹; the kon is 187000 M⁻¹ s⁻¹.

B15: huSP34.9.4 Fab-HF (Fab, V domains shown)
VH: EVQLVESGGGLVQPGGSLRLSCAASGFTFSDYAMNWVRQAPGKGLEWVGRTRSKYNSYATYYAASVKGRFTISRDDSKNSLYLQMNSLKTEDTAVYYCVRHGNFGNSYVSWFAVWGQGTLVTVSS
VL: QAVVTQEPSLTVSPGGTVTLTCGSSTGAVTTSHYANWVQQKPGQAPRGLIGGTSKRAPWTPARFSGSLLGGKAALTLSGAQPEDEAEYYCALWYSALWVFGGGTKLTVL
notes: also called HC9+LC4
In turn, B15 came in with a Kd of 6120 nM, a koff of 0.25 s⁻¹ and an association rate constant (kon) of 40900 M⁻¹ s⁻¹.

B16: huSP34.7.4 Fab-HF (Fab, V domains shown)
VH: EVQLVESGGGLVQPGGSLRLSCAASGFTFSDYAMNWVRQAPGKGLEWVGRTRSKYNNYATYYAASVKGRFTISRDDSKNSLYLQMNSLKTEDTAVYYCVRHGNFGNSYVSWFAVWGQGTLVTVSS
VL: QAVVTQEPSLTVSPGGTVTLTCGSSTGAVTTSHYANWVQQKPGQAPRGLIGGTSKRAPWTPARFSGSLLGGKAALTLSGAQPEDEAEYYCALWYSALWVFGGGTKLTVL
notes: also called HC7+LC4
In turn, B16 had a Kd of 4180 nM, a koff of 0.424 s⁻¹ and a kon of 265000 M⁻¹ s⁻¹.

B17: huSP34.9.2 Fab-HF (Fab, V domains shown)
VH: EVQLVESGGGLVQPGGSLRLSCAASGFTFSDYAMNWVRQAPGKGLEWVGRTRSKYNSYATYYAASVKGRFTISRDDSKNSLYLQMNSLKTEDTAVYYCVRHGNFGNSYVSWFAVWGQGTLVTVSS
VL: QAVVTQEPSLTVSPGGTVTLTCGSSTGAVTTSNYANWVQQKPGQAPRGLIGGTSNRAPWTPARFSGSLLGGKAALTLSGAQPEDEAEYYCALWYSNLWVFGGGTKLTVL
notes: also called HC9+LC2
B17 gave a Kd of 761 nM, a koff of 0.145 s⁻¹ and a kon of 192000 M⁻¹ s⁻¹.

B18: huSP34.8.2 Fab-HF (Fab, V domains shown)
VH: EVQLVESGGGLVQPGGSLRLSCAASGFTFSDYAMNWVRQAPGKGLEWVGRTRSKYNNYATYYAASVKGRFTISRDDSKNSLYLQMNSLKTEDTAVYYCVRHGNFGHSYVSWFAVWGQGTLVTVSS
VL: QAVVTQEPSLTVSPGGTVTLTCGSSTGAVTTSNYANWVQQKPGQAPRGLIGGTSNRAPWTPARFSGSLLGGKAALTLSGAQPEDEAEYYCALWYSNLWVFGGGTKLTVL
notes: also called HC8+LC2
The molecule B18 came in with an equilibrium dissociation constant (Kd) of 3440 nM, an off-rate constant (koff) of 0.0982 s⁻¹ and a kon of 172000 M⁻¹ s⁻¹.

The values are drawn from US20230056252A1 (Gilead, published 2023).
